# How the values were obtained:
# [1] = molecular target: T1, CD3 on human donor PBMC / Pan T effector cells (human, UniProt P07766 23-207; P09693 23-182; P04234 22-171; P20963 22-164); assay: cell-based or functional assay
# [2] = molecular target: T1, CD3 on human donor PBMC / Pan T …; assay: cell-based or functional assay; remark: listed apart in the source
# T1 sequence (P07766 23-207, chain 1 of 4): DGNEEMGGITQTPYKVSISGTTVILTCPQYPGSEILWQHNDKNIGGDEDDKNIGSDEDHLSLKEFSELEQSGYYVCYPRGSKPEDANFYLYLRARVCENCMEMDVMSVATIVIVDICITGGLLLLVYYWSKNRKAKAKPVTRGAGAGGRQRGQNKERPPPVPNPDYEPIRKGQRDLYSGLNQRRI
# T1 sequence (P09693 23-182, chain 2 of 4): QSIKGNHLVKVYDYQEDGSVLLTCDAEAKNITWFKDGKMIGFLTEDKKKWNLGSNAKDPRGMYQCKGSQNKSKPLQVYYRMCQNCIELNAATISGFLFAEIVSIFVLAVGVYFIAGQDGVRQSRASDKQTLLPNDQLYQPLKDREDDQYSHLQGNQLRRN
# T1 sequence (P04234 22-171, chain 3 of 4): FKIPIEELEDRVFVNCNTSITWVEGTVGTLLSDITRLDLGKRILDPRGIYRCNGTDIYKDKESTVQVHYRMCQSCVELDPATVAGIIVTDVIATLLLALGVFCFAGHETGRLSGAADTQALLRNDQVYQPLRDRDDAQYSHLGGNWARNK
# T1 sequence (P20963 22-164, chain 4 of 4): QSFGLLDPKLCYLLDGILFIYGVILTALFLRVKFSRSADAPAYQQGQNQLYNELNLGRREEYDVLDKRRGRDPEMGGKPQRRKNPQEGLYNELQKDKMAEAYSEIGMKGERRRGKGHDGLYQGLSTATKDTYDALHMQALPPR
Cytokine Release Assay (TNFα) Donor 0 gMFI max [1],Cytokine Release Assay (TNFα) Donor 1 gMFI max [1],Cytokine Release Assay (TNFα) Donor 2 EC50 [1],Cytokine Release Assay (TNFα) Donor 2 gMFI max [1],Cytokine Release Assay (TNFα) Donor 3 EC50 [1],Cytokine Release Assay (TNFα) Donor 3 gMFI max [1],Cytokine Release Assay (IL2) Donor 0 EC50 [2],Cytokine Release Assay (IL2) Donor 0 gMFI max [2],Cytokine Release Assay (IL2) Donor 1 EC50 [2],Cytokine Release Assay (IL2) Donor 1 gMFI max [2],Cytokine Release Assay (IL2) Donor 2 gMFI max [2],Cytokine Release Assay (IL2) Donor 3 EC50 [2],Cytokine Release Assay (IL2) Donor 3 gMFI max [2],Cytokine Release Assay (TNFα) Donor 0 EC50 [1],Cytokine Release Assay (IL2) Donor 2 EC50 [2],Binder
5510 gMFI,4510 gMFI,1.35 nM,4800 gMFI,18.6 nM,5310 gMFI,141 nM,17200 gMFI,10.7 nM,14500 gMFI,12800 gMFI,3.87 nM,18100 gMFI,–,–,CD3 × CD33-BspAb52 (bispecific antibody) chain 1: not shown chain 2: EVQLVQSGAEVKKPGSSVKVSCKASGYTITDSNIHWVRQAPGQSLEWIGYIYPYNGGTDYNQKFKNRATLTVDNPTNTAYMELSSLRSEDTAFYYCVNGNPWLAYWGQGTLVTVSSASTKGPSVFPLAPSSKSTSGGTAALGCLVKDYFPEPVTVSWNSGALTSGVHTFPAVLQSSGLYSLSSVVTVPSSSLGTQTYICNVNHKPSNTKVDKRVEPKSCDKTHTCPPCPAPEFEGGPSVFLFPPKPKDTLMISRTPEVTCVVVDVSHEDPEVKFNWYVDGVEVHNAKTKPREEQYNSTYRVVSVLTVLHQDWLNGKEYKCKVSNKALPASIEKTISKAKGQPREPQVCTLPPSREEMTKNQVSLSCAVKGFYPSDIAVEWESNGQPENNYKTTPPVLDSDGSFFLVSKLTVDKSRWQQGNVFSCSVMHEALHNRFTQKSLSLSPGK chain 3: DIQLTQSPSTLSASVGDRVTITCRASESLDNYGIRFLTWFQQKPGKAPKLLMYAASNQGSGVPSRFSGSGSGTEFTLTISSLQPDDFATYYCQQTKEVPWSFGQGTKVEVKRTVAAPSVFIFPPSDEQLKSGTASVVCLLNNFYPREAKVQWKVDNALQSGNSQESVTEQDSKDSTYSLSSTLTLSKADYEKHKVYACEVTHQGLSSPVTKSFNRGEC
28000 gMFI,4400 gMFI,1.01 nM,14300 gMFI,0.653 nM,24200 gMFI,0.104 nM,29000 gMFI,0.373 nM,15900 gMFI,32500 gMFI,0.24 nM,42900 gMFI,0.759 nM,26.5 nM,CD3 × CD33-BspAb73 (bispecific antibody) chain 1: EVQLVESGGGLVKPGGSLRLSCAASGFTFSSYSMNWVRQAPGKCLEWVSSVNSRGSYIYYADSVKGRFTISRDNAKDSLYLQMNSLRADDTAVYYCARDRRELLLDYWGQGTLVTVSSGGGGSGGGGSGGGGSGGGGSSYELTQPPSVSVSPGQTARITCSGDALPKKYAYWYQQKSGQAPVLVIYEDSKRPSGIPERFSGSSSGTMATLTISGAQVEDEADYYCYSTDSSGNHSWVFGCGTKLTVLDKTHTCPPCPAPEFEGGPSVFLFPPKPKDTLMISRTPEVTCVVVDVSHEDPEVKFNWYVDGVEVHNAKTKPREEQYNSTYRVVSVLTVLHQDWLNGKEYKCKVSNKALPASIEKTISKAKGQPREPQVYTLPPCREEMTKNQVSLWCLVKGFYPSDIAVEWESNGQPENNYKTTPPVLDSDGSFFLYSKLTVDKSRWQQGNVFSCSVMHEALHNHYTQKSLSLSPGK chain 2: EVQLVQSGAEVKKPGSSVKVSCKASGYTITDSNIHWVRQAPGQSLEWIGYIYPYNGGTDYNQKFKNRATLTVDNPTNTAYMELSSLRSEDTAFYYCVNGNPWLAYWGQGTLVTVSSASTKGPSVFPLAPSSKSTSGGTAALGCLVKDYFPEPVTVSWNSGALTSGVHTFPAVLQSSGLYSLSSVVTVPSSSLGTQTYICNVNHKPSNTKVDKRVEPKSCDKTHTCPPCPAPEFEGGPSVFLFPPKPKDTLMISRTPEVTCVVVDVSHEDPEVKFNWYVDGVEVHNAKTKPREEQYNSTYRVVSVLTVLHQDWLNGKEYKCKVSNKALPASIEKTISKAKGQPREPQVCTLPPSREEMTKNQVSLSCAVKGFYPSDIAVEWESNGQPENNYKTTPPVLDSDGSFFLVSKLTVDKSRWQQGNVFSCSVMHEALHNRFTQKSLSLSPGK chain 3: DIQLTQSPSTLSASVGDRVTITCRASESLDNYGIRFLTWFQQKPGKAPKLLMYAASNQGSGVPSRFSGSGSGTEFTLTISSLQPDDFATYYCQQTKEVPWSFGQGTKVEVKRTVAAPSVFIFPPSDEQLKSGTASVVCLLNNFYPREAKVQWKVDNALQSGNSQESVTEQDSKDSTYSLSSTLTLSKADYEKHKVYACEVTHQGLSSPVTKSFNRGEC
55800 gMFI,5360 gMFI,28.1 nM,14000 gMFI,10.8 nM,28600 gMFI,44.9 nM,84700 gMFI,40.1 nM,31100 gMFI,33700 gMFI,49.8 nM,95000 gMFI,20.1 nM,38.7 nM,"CD3 × CD33-BspAb66 (bispecific antibody, human IgG1, kappa) EVQLVESGGGLVQPGRSLRLSCAASGFTFDDYAMHWVRQAPGKGLEWVSGISWNSGSIGYADSVKGRFTISRDNAKNSLYLQMNSLRAEDTALYYCAKDSRGYGDYRLGGAYWGQGTLVTVSSGGGGSGGGGSGGGGSGGGGSEIVMTQSPATLSVSPGERATLSCRASQSVSSNLAWYQQKPGQAPRLLIYGASTRATGIPARFSGSGSGTEFTLTISSLQSEDFAVYYCQQYNNWPWTFGQGTKVEIKTSGPGGPDKTHTCPPCPAPEFEGGPSVFLFPPKPKDTLMISRTPEVTCVVVDVSHEDPEVKFNWYVDGVEVHNAKTKPREEQYNSTYRVVSVLTVLHQDWLNGKEYKCKVSNKALPASIEKTISKAKGQPREPQVYTLPPCREEMTKNQVSLWCLVKGFYPSDIAVEWESNGQPENNYKTTPPVLDSDGSFFLYSKLTVDKSRWQQGNVFSCSVMHEALHNHYTQKSLSLSPGK heavy: EVQLVQSGAEVKKPGSSVKVSCKASGYTITDSNIHWVRQAPGQSLEWIGYIYPYNGGTDYNQKFKNRATLTVDNPTNTAYMELSSLRSEDTAFYYCVNGNPWLAYWGQGTLVTVSSASTKGPSVFPLAPSSKSTSGGTAALGCLVKDYFPEPVTVSWNSGALTSGVHTFPAVLQSSGLYSLSSVVTVPSSSLGTQTYICNVNHKPSNTKVDKRVEPKSCDKTHTCPPCPAPEFEGGPSVFLFPPKPKDTLMISRTPEVTCVVVDVSHEDPEVKFNWYVDGVEVHNAKTKPREEQYNSTYRVVSVLTVLHQDWLNGKEYKCKVSNKALPASIEKTISKAKGQPREPQVCTLPPSREEMTKNQVSLSCAVKGFYPSDIAVEWESNGQPENNYKTTPPVLDSDGSFFLVSKLTVDKSRWQQGNVFSCSVMHEALHNRFTQKSLSLSPGK light: DIQLTQSPSTLSASVGDRVTITCRASESLDNYGIRFLTWFQQKPGKAPKLLMYAASNQGSGVPSRFSGSGSGTEFTLTISSLQPDDFATYYCQQTKEVPWSFGQGTKVEVKRTVAAPSVFIFPPSDEQLKSGTASVVCLLNNFYPREAKVQWKVDNALQSGNSQESVTEQDSKDSTYSLSSTLTLSKADYEKHKVYACEVTHQGLSSPVTKSFNRGEC"
23400 gMFI,4410 gMFI,16.9 nM,8010 gMFI,42.5 nM,11200 gMFI,8.21 nM,23000 gMFI,4.28 nM,17300 gMFI,16400 gMFI,8.36 nM,26300 gMFI,–,2.16 nM,CD3 × CD33-BspAb72 (bispecific antibody) chain 1: EVQLVESGGGLVQPGGSLRLSCAASGFTFSSYSMNWVRQAPGKCLEWVSYISSSSSTIYYADSVKGRFTISRDNAKNSLYLQMNSLRDEDTAVYYCARDGPVDYGMDVWGQGTTVTVSSGGGGSGGGGSGGGGSGGGGSSYELTQPPSVSVSPGQTARITCSGDALPKQYTYWYQQKPGQAPVLVIYKDSERPSGIPERFSGSSSGTTVTLTISGVQAEDEADYYCQSADSSGTYRVFGCGTKLTVLDKTHTCPPCPAPEFEGGPSVFLFPPKPKDTLMISRTPEVTCVVVDVSHEDPEVKFNWYVDGVEVHNAKTKPREEQYNSTYRVVSVLTVLHQDWLNGKEYKCKVSNKALPASIEKTISKAKGQPREPQVYTLPPCREEMTKNQVSLWCLVKGFYPSDIAVEWESNGQPENNYKTTPPVLDSDGSFFLYSKLTVDKSRWQQGNVFSCSVMHEALHNHYTQKSLSLSPGK chain 2: EVQLVQSGAEVKKPGSSVKVSCKASGYTITDSNIHWVRQAPGQSLEWIGYIYPYNGGTDYNQKFKNRATLTVDNPTNTAYMELSSLRSEDTAFYYCVNGNPWLAYWGQGTLVTVSSASTKGPSVFPLAPSSKSTSGGTAALGCLVKDYFPEPVTVSWNSGALTSGVHTFPAVLQSSGLYSLSSVVTVPSSSLGTQTYICNVNHKPSNTKVDKRVEPKSCDKTHTCPPCPAPEFEGGPSVFLFPPKPKDTLMISRTPEVTCVVVDVSHEDPEVKFNWYVDGVEVHNAKTKPREEQYNSTYRVVSVLTVLHQDWLNGKEYKCKVSNKALPASIEKTISKAKGQPREPQVCTLPPSREEMTKNQVSLSCAVKGFYPSDIAVEWESNGQPENNYKTTPPVLDSDGSFFLVSKLTVDKSRWQQGNVFSCSVMHEALHNRFTQKSLSLSPGK chain 3: DIQLTQSPSTLSASVGDRVTITCRASESLDNYGIRFLTWFQQKPGKAPKLLMYAASNQGSGVPSRFSGSGSGTEFTLTISSLQPDDFATYYCQQTKEVPWSFGQGTKVEVKRTVAAPSVFIFPPSDEQLKSGTASVVCLLNNFYPREAKVQWKVDNALQSGNSQESVTEQDSKDSTYSLSSTLTLSKADYEKHKVYACEVTHQGLSSPVTKSFNRGEC

# — patent US20260167721A1 (ABLEXIS, published 2026)
